Data set [1] concerns IL-1α+IFN-γ induced IL-8 production by HT-29 cells. In words: IL-1α+IFN-γ induced IL-8 production by HT-29 cells. In kind it is cell-based, human. Conditions: IL-1ra control. The procedure: (§1) Human colon epithelial cell lines HT-29 and Caco2 obtained from the European Collection of Animal Cell Cultures (ECACC) were used in cell cultures. Cells were routinely cultured at 37° C. in an atmosphere of 5% CO2 in 80 cm^2 tissue culture flasks in McCoy's and DMEM medium, respectively, supplemented with penicillin (10 u/ml), streptomycin (10 μg/ml), fungizone (0.5 μg/ml), and 10% (v/v) FCS (referred to as complete medium) until confluent.
(§2) Confluent monolayers were sub-cultured into 6-well plates for experimental protocols. Cells were grown in 6-well plates until confluent. Twenty-four hours prior to the experiment the confluent monolayers were washed and cultured in FCS-free McCoy's medium. Growth arrested cultures were then treated with fresh FCS-free medium and stimulated with vehicle controls or various doses of IL-1α added alone or in combination with other pro-inflammatory cytokines (TNF-α, IFN-γ) in the presence or absence of the peptide of sequence 4 or IL-1 ra, in a dose and time dependent manner.
(§3) Supernatants were collected, centrifuged to remove cellular debris and stored at −70° C. until assayed for extracellular inflammatory mediators. Total RNA for RT-PCR was extracted as described above. Cell counting and viability was routinely checked at the beginning and the end of the experiment by phase microscopy and by trypan blue exclusion using representative wells. Mycoplasma tests were performed during the experimental protocol. Production of soluble mediators was assessed by commercially available ELISA in supernatants, RT-PCR in total RNA extractants and nitric oxide, as described in Kolios, G, et al. (1995). Br J Pharmacol, 116, 2866-2872, the contents of which are incorporated herein by reference.
Stimulation of HT-29 cells with a combination of pro-inflammatory cytokines induces increased secretion of chemokines, including IL-8 (as described in Kolios, G, et al. (1999). Eur J Immunol, 29, 530-536 the contents of which are herein incorporated by reference). […]

For data set [2], the system named is IL-1 stimulation of IL-8 in human skin fibroblasts. Kind of data set: Inhibition of IL-1 induced IL-8 in human fibroblasts. In kind it is cell-based. Conditions: n=3; maximal activation with IL-1 only 2530±13 pg/ml. On the procedure: Inhibition of IL-1 induced IL-8 in human fibroblasts was determined using normal human dermal fibroblast cells cultured in DMEM with 10% fetal calf serum in 48-well plates.
Twenty-four hours before initiation of the experiment, the medium was changed to DMEM with 0.2% fetal calf serum. Each peptide was added to confluent cells, which were then pulsed for 30 min with rIL-I,B (which was obtained from R & D Systems) at 50 pg/ml. The cells were washed four times with PBS, and fresh DMEM/0.2% fetal calf serum was added to each well. After 5 hr of incubation, the culture media were collected and analyzed by ELISA for IL-8 (which was obtained from R & D Systems). Maximal activation, with IL-1 only, was 2530±13 pg/ml of IL-8. Nonspecific activation, determined in the presence of 1000-fold excess IL-1Ra, was 30±9 pg/ml of IL-8 (n=3).

Data set [3] has as its system IL-1α-induced IL-8 production by HT-29 cells. Kind of data set: IL-1α induced IL-8 production by HT-29 colonic epithelial cells. Conditions: IL-1ra 500 control. In kind it is cell-based, human. The procedure: as §1, §2, §3
HT 29 and Caco2 colonic epithelial cell lines were stimulated with 10 ng/ml of IL-la in the presence of 100 or 500 ng/ml of the peptide of sequence 4.

The test system of data set [4] is IL-1α+IFN-γ induced IL-17 production by HT-29 cells. Kind of data set: IL-1α+IFN-γ induced IL-17 production by HT-29 cells. Format: cell-based, human. As to conditions: IL-1ra control. On the procedure:
as §1, §2
(§4) Supernatants were collected, centrifuged to remove cellular debris and stored at −70° C. until assayed for extracellular inflammatory mediators. […] Production of soluble mediators was assessed by commercially available ELISA in supernatants, RT-PCR in total RNA extractants and nitric oxide, as described in Kolios, G, et al. (1995). […]

Data set [5] has as its system IL-1α-induced IL-8 production by Caco2 cells. In words: IL-1α induced IL-8 production by Caco2 colonic adenocarcinoma cells. In kind it is cell-based, human. Conditions: IL-1ra 100 ng/ml, IL-1α alone 476.93±78.9, n=3. On the procedure: as §1, §2, §4
The conditions of data set [6]: background statement; cited from earlier work.
Data set [7] has as its target IL-1 receptor (IL-1R) expressed on human monocytes (human) (UniProt P14778). Kind of data set: radioligand competition, 40 pM 125I-IL-1α on confluent human monocytes. For orientation: Displacement assays read how much labelled ligand stays bound in the presence of the test substance.
For data set [8] the target is unchanged. Kind of data set: cell-based or functional assay.
Data set [9] addresses T1, IL-1 receptor (IL-1R) expressed on human monocytes (human), P14778.
T1 chain: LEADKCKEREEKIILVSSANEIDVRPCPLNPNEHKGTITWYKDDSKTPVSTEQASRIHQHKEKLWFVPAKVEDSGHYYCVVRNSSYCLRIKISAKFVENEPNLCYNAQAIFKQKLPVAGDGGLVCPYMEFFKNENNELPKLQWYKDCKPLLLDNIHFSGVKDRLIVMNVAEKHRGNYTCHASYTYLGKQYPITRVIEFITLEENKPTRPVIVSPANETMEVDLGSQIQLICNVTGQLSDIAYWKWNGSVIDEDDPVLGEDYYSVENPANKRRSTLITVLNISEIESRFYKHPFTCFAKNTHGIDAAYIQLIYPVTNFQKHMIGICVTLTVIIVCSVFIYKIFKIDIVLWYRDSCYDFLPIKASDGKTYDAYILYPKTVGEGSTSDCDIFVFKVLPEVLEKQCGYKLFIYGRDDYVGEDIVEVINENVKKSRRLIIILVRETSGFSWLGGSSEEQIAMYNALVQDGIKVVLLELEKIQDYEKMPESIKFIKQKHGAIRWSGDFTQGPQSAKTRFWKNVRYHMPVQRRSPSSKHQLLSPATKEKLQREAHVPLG
In words: radioligand competition, 40 pM 125I-IL-1α on confluent human monocytes.

For data set [10], the target named is T1, IL-1 receptor (IL-1R) expressed on …. Kind of data set: cell-based or functional assay.

Non-standard residues stand in square brackets, D forms with d. No end group written: not given here.

As to “IL-1ra: IL-1R antagonist, member of the IL-1 cytokine family; competitively inhibits the activities of IL-1 [reference compound]”, the “IL-8 production in the absence of IL-1α” value in data set [1] and in data set [3] was “did not result in production of IL-8” each time. The “IL-8, nonspecific activation in the presence of 1000-fold excess IL-1Ra” value in data set [2] is 30 ± 9 pg/mL. The “IL-17 production without cytokine stimulation” value in [4] is reported as “did not produce significant amounts of IL-17”. The “IL-1α-induced IL-8 secretion” value in data set [5] turned out to be 923.95±63.69 pg/ml per 106 cells.
For “recombinant IL-1Ra: recombinant full length IL-1Ra approved for methotrexate resistant rheumatoid arthritis (Amgen: Kineret-Anakinra)”, in data set [6], the half-life result is reported as “approximately six”.
Broadly, the IC50 is the point on the concentration scale where inhibition reaches its midpoint. High values mean weaker potency in that assay, low ones greater potency in that assay. Ac-[dL][dP][dL][dA][dY][dP][dQ][dW][dY]G[dP][dT][dW][dE][dF][dS][dS][dV][dN][dA][dT] (not fully specified (residue 10); printed as Ac-LPLAYPQWYGPTWEFSSVNAT) [peptide of SEQ ID NO: 18 (Ac-…, D-amino acids)] yielded a concentration for half-maximal inhibition (IC50) in data set [7] of 190 nM. In addition, the IC50, in vitro inhibition of IL-1 stimulation of IL-8 in human skin fibroblasts (rIL-1β 50 pg/ml, IL-8 ELISA) in data set [8] amounted to 810 nM.
On the same counts, the results for Ac-[dL][dP][dL][dA][dY][dP][dQ][dW][dY][dY][dA][dN][dS][dE][dE][dW][dT][dF] [peptide of SEQ ID NO: 16 (Ac-…, D-amino acids)] are 22 nM and 120 nM.
In turn, Ac-[dL][dP][dL][dA][dY][dP][dQ][dW][dY][dR][dE]G[dS][dQ][dR][dW][dR][dD][dY]G[dD] (not fully specified (residues 12, 20); printed as Ac-LPLAYPQWYREGSQRWRDYGD) [peptide of SEQ ID NO: 21 (Ac-…, D-amino acids)] displayed an IC50 in data set [7] of 240 nM. In addition, in [8], the IC50, in vitro inhibition of IL-1 stimulation of IL-8 in human skin fibroblasts (rIL-1β 50 pg/ml, IL-8 ELISA) came to 730 nM.
In the case of Ac-[dL][dP][dL][dA][dY][dP][dQ][dW][dY]G[dP][dT][dW][dE][dF], in data set [9], the IC50 was 6.9 nM. Further, in [10], the IC50, in vitro inhibition of IL-1 stimulation of IL-8 in human skin fibroblasts (rIL-1β 50 pg/ml, IL-8 ELISA) was 5.9 nM.
